According to publication doi:10.1101/2024.05.23.595515v1:

B1: ADK (human adenosine kinase) (Homo sapiens) (protein)
chain: MTSVRENILFGMGNPLLDISAVVDKDFLDKYSLKPNDQILAEDKHKELFDELVKKFKVEYHAGGSTQNSIKVAQWMIQQPHKAATFFGCIGIDKFGEILKRKAAEAHVDAHYYEQNEQPTGTCAACITGDNRSLIANLAAANCYKKEKHLDLEKNWMLVEKARVCYIAGFFLTVSPESVLKVAHHASENNRIFTLNLSAPFISQFYKESLMKVMPYVDILFGNETEAATFAREQGFETKDIKEIAKKTQALPKMNSKRQRIVIFTQGRDDTIMATESEVTAFAVLDQDQKEIIDTNGAGDAFVGGFLSQLVSDKPLTECIRAGHYAASIIIRRTGCTFPEKPDFH
B2: ADAL (hADAL, adenosine deaminase-like) (Homo sapiens) (protein)
chain: MIEAEEQQPCKTDFYSELPKVELHAHLNGSISSHTMKKLIAQKPDLKIHDQMTVIDKGKKRTLEECFQMFQTIHQLTSSPEDILMVTKDVIKEFADDGVKYLELRSTPRRENATGMTKKTYVESILEGIKQSKQENLDIDVRYLIAVDRRGGPLVAKETVKLAEEFFLSTEGTVLGLDLSGDPTVGQAKDFLEPLLEAKKAGLKLALHLSEIPNQKKETQILLDLLPDRIGHGTFLNSGEGGSLDLVDFVRQHRIPLELCLTSNVKSQTVPSYDQHHFGFWYSIAHPSVICTDDKGVFATHLSQEYQLAAETFNLTQSQVWDLSYESINYIFASDSTRSELRKKWNHLKPRVLHI

Legend:
Assay in all cases: purified protein
purified protein [1] = substrate: CC(C)=CCNc1ncnc2c1ncn2[C@@H]1O[C@H](CO)[C@@H](O)[C@H]1O; conditions: ATP 1 mM, 37 °C, HEPES, NaCl, MgCl2, CaCl2
purified protein [2] = substrate: CN(C)c1ncnc2c1ncn2[C@@H]1O[C@H](CO)[C@@H](O)[C@H]1O; conditions: ATP 1 mM, 37 °C, HEPES, NaCl, MgCl2, CaCl2
purified protein [3] = substrate: CNc1ncnc2c1ncn2[C@@H]1O[C@H](CO)[C@@H](O)[C@H]1O; conditions: ATP 1 mM, 37 °C, HEPES, NaCl, MgCl2, CaCl2
purified protein [4] = substrate: CC(C)=CCNc1ncnc2c1ncn2[C@@H]1O[C@H](COP(=O)(O)O)[C@@H](O)[C@H]1O; conditions: 37 °C, HEPES, NaCl, MgCl2, 2-mercaptoethanol
purified protein [5] = substrate: CN(C)c1ncnc2c1ncn2[C@@H]1O[C@H](COP(=O)(O)O)[C@@H](O)[C@H]1O; conditions: 37 °C, HEPES, NaCl, MgCl2, 2-mercaptoethanol
purified protein [6] = substrate: CNc1ncnc2c1ncn2[C@@H]1O[C@H](COP(=O)(O)O)[C@@H](O)[C@H]1O; conditions: 37 °C, HEPES, NaCl, MgCl2, 2-mercaptoethanol

| Protein | Km (purified protein [1]) | kcat (purified protein [1]) | Km (purified protein [2]) | kcat (purified protein [2]) | Km (purified protein [3]) | kcat (purified protein [3]) | Km (purified protein [4]) | kcat (purified protein [4]) | Km (purified protein [5]) | kcat (purified protein [5]) | Km (purified protein [6]) | kcat (purified protein [6]) |
| --- | --- | --- | --- | --- | --- | --- | --- | --- | --- | --- | --- | --- |
| B1 | 10 ± 1.0 µM | 0.18 ± 0.018 s⁻¹ | 6.1 ± 0.31 µM | 0.27 ± 0.0024 s⁻¹ | 15 ± 1.8 µM | 0.28 ± 0.0063 s⁻¹ |  |  |  |  |  |  |
| B2 |  |  |  |  |  |  | 35 ± 1.4 µM | 1.9 ± 0.066 s⁻¹ | 65 ± 1.7 µM | 2.6 ± 0.036 s⁻¹ | 47 ± 1.1 µM | 2.4 ± 0.068 s⁻¹ |
